Blank lines part the entries; values can stand above or below the binder they belong to. Starred links: 1 amine or outer side, 2 acyl side, 3 side chain; linkers in the order of their positions; H or OH if unused. Positions of bridges follow the written chain, without caps; N, C: chain ends. Non-standard residues stand in square brackets, D forms with d. Primed or numbered codes have the meaning given here. B5(29) = 2-amino-2-(pent-4-en-1-yl)hept-6-enoic acid (2,2-bis(4-pentenyl)glycine), stitching residue bearing both staples, C=CCCCC(CCCC=C)(N[*:1])C(=O)[*:2]; PyrS2″ = (S)-3-amino-1-((pent-4-en-1-yloxy)carbonyl)pyrrolidine-3-carboxylic acid (stapling residue), C=CCCCOC(=O)N1CC[C@@](N[*:1])(C(=O)[*:2])C1; B5(4) = 2,2-bis(4-pentenyl)glycine = 2-amino-2-(pent-4-en-1-yl)hept-6-enoic acid (stitching residue), C=CCCCC(CCCC=C)(N[*:1])C(=O)[*:2]; B5(6) = 2-amino-2-(pent-4-en-1-yl)hept-6-enoic acid (bis(4-pentenyl)glycine), stitching residue, C=CCCCC(CCCC=C)(N[*:1])C(=O)[*:2]; TfeGA = (S)-2-amino-3-((carboxymethyl)(2,2,2-trifluoroethyl)amino)propanoic acid, O=C([C@H](CN(CC(=O)[*:3])CC(F)(F)F)N[*:1])[*:2]; PyrS2 = (S)-3-amino-1-((pent-4-en-1-yloxy)carbonyl)pyrrolidine-3-carboxylic acid, C=CCCCOC(=O)N1CC[C@@](N[*:1])(C(=O)[*:2])C1; B5(19) = 2-amino-2-(pent-4-en-1-yl)hept-6-enoic acid (bis(4-pentenyl)glycine), C=CCCCC(CCCC=C)(N[*:1])C(=O)[*:2]; B5(3) = 2,2-bis(4-pentenyl)glycine (stitching residue), C=CCCCC(CCCC=C)(N[*:1])C(=O)[*:2]; AcLys″ = N6-acetyl-lysine, CC(=O)NCCCC[C@H](N[*:1])C(=O)[*:2]; Phe(F5) = N[C@@H](Cc1c(F)c(F)c(F)c(F)c1F)C(=O)O; Bta = N[C@@H](Cc1csc2ccccc12)C(=O)O; hTyr = N[C@@H](CCc1ccc(O)cc1)C(=O)O; αAllylPro = C=CC[C@@]1(C(=O)O)CCCN1; tBuAla = CC(C)(C)C[C@H](N)C(=O)O; 3Thi = N[C@@H](Cc1ccsc1)C(=O)O; S8 = C=CCCCCCC[C@](C)(N)C(=O)O; hSer = N[C@@H](CCO)C(=O)O; Nle = CCCC[C@H](N)C(=O)O
Experiments:
B-cat-Halo [1] = molecular target: T1, B-cat-Halo (UniProt P35222 2-781); experiment: cell-based or functional assay
T1 sequence (looked up): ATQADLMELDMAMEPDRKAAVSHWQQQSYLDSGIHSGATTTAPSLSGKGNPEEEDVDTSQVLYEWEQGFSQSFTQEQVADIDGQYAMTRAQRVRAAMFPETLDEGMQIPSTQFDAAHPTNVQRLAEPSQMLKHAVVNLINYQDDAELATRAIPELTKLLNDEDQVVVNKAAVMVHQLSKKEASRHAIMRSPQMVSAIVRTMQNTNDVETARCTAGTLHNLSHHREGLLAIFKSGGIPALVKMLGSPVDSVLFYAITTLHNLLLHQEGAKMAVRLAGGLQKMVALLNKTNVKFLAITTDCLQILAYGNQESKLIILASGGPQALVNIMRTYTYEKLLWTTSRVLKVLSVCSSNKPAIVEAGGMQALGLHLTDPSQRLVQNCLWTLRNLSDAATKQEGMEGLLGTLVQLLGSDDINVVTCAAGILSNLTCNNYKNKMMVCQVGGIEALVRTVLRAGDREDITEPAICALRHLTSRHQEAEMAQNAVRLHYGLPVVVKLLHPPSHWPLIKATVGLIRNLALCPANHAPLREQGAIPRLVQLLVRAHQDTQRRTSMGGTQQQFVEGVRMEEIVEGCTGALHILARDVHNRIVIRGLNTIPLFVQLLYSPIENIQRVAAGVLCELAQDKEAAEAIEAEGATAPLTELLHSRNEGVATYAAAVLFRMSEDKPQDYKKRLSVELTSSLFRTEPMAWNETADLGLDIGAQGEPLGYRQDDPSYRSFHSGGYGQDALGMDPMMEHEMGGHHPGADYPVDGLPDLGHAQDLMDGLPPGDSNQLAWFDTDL

B-cat-Halo [2] = molecular target: T2, B-cat-Halo (UniProt P35222 1-781); experiment: cell-based or functional assay
T2 sequence (looked up): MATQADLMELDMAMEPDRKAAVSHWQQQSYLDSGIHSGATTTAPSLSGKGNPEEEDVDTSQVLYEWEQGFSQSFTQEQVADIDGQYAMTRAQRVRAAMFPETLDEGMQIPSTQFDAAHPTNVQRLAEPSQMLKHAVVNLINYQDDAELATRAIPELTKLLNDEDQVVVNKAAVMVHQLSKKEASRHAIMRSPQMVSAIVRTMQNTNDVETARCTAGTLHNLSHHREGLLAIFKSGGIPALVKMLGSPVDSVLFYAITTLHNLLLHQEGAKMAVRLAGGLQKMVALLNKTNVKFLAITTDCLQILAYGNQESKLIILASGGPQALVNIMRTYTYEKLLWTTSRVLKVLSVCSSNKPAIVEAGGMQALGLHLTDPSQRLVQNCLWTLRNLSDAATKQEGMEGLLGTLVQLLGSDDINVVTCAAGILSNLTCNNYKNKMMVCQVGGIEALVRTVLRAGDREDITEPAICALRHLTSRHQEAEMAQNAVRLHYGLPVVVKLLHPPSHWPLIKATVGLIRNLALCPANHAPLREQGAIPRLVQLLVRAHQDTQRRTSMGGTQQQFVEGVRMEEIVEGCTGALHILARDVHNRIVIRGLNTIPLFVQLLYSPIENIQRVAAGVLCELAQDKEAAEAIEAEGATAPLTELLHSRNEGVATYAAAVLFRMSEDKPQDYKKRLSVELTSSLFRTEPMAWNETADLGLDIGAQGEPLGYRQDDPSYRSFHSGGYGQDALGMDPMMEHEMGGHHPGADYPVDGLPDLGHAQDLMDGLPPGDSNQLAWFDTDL

[3] = molecular target: T3, full-length beta-Catenin (Uniprot ID P35222) (Homo sapiens (Human), UniProt P35222 2-781); experiment: fluorescence polarization competition; full-length beta-catenin with 5FAM-TCF4(10-53) probe as competitor
T3 construct: No tag is stated for the FP assay; also called bCat; B-Catenin
T3 sequence: T1 sequence (looked up)
Description: The plate was incubated protected from light for 60 minutes at 20° C. prior to read. Reads were performed on a CLARIOstar plate reader (BMG Labtech) in duplicate, and data were fitted to a 1:1 binding model with hill slope using an in-house script. All provided concentrations are final concentrations.

Binder: Ac-[αAllylPro]D[tBuAla][B5(4)]D[TfeGA]AAFL[PyrS2″][3Thi][Bta][AcLys″]-NH2 (staple 1-4, 4-11; also: -CH=CH- in each staple reduced to -CH2-CH2-) [I-1719]
NanoBRET Abs IC50 (B-cat-Halo [2]): 27.6 µM

Binder: Ac-[αAllylPro]D[tBuAla][B5(19)]D[TfeGA]AAF[Nle][PyrS2][3Thi][Bta]Q-NH2 (staple 1-4, 4-11) [I-1776]
NanoBRET Abs IC50 (B-cat-Halo [1]): 10.5 µM

Binder: Ac-[αAllylPro]DI[B5(29)]DEAAFN[S8]F[Bta]H-NH2 (staple 1-4, 4-11, Stapled (stitched) peptide composition) [I-472]
IC50 [3]: 0.062 µM

Binder: Ac-[αAllylPro]DI[B5(6)]DEAAFQ[S8]F[Bta]H-NH2 (staple 1-4, 4-11, Stapled (stitched) peptide composition) [I-471]
IC50 [3]: 0.052 µM

B1: I-476 (peptide)
peptide: XDIXDEAAFNXFXQ
modifications: not fully specified; Ac-PL3-Asp-aIle-B5-Asp-Glu-Ala-Ala-Phe-Asn-S8-Phe-BztA-Gln-NH2; N-terminal acetyl, C-terminal amide; PL3(1)-B5(4) and B5(4)-S8(11) stapled by olefin metathesis; aIle at 3; BztA at 13
notes: Stapled peptide; this is the later eluting HPLC peak (staple isomer composition)
IC50 [3]: 0.048 µM

B2: I-479 (peptide)
peptide: XDAXDEAAFNXFXH
modifications: not fully specified; Ac-PL3-Asp-Ala-B5-Asp-Glu-Ala-Ala-Phe-Asn-S8-Phe-BztA-1MeH-NH2; N-terminal acetyl, C-terminal amide; PL3(1)-B5(4) and B5(4)-S8(11) stapled by olefin metathesis; BztA at 13; 1MeH at 14
notes: as for B1
IC50 [3]: 0.027 µM

B3: I-478 (peptide)
peptide: XDAXDEAAFNXFXH
modifications: not fully specified; Ac-PL3-Asp-Ala-B5-Asp-Glu-Ala-Ala-Phe-Asn-S8-Phe-BztA-1MeH-NH2; N-terminal acetyl, C-terminal amide; PL3(1)-B5(4) and B5(4)-S8(11) stapled by olefin metathesis; BztA at 13; 1MeH at 14
notes: Stapled peptide; this is the earlier eluting HPLC peak (staple isomer composition)
IC50 [3]: 0.071 µM

B4: I-475 (peptide)
peptide: XDIXDEAAFNXFXQ
modifications: not fully specified; Ac-PL3-Asp-aIle-B5-Asp-Glu-Ala-Ala-Phe-Asn-S8-Phe-BztA-Gln-NH2; N-terminal acetyl, C-terminal amide; PL3(1)-B5(4) and B5(4)-S8(11) stapled by olefin metathesis; aIle at 3; BztA at 13
notes: as for B3
IC50 [3]: 0.102 µM

B5: I-495 (peptide)
peptide: XDIXDEAAFQXFXN
modifications: not fully specified; Ac-PL3-Asp-Ile-B5-Asp-Glu-Ala-Ala-Phe-Gln-S8-Phe-BztA-Asn-NH2; N-terminal acetyl, C-terminal amide; PL3(1)-B5(4) and B5(4)-S8(11) stapled by olefin metathesis; BztA at 13
notes: Stapled (stitched) peptide composition
IC50 [3]: 0.181 µM

Now from value to binder:

NanoBRET Abs IC50 (B-cat-Halo [1]): > 20 µM
Binder: Ac-[αAllylPro]D[tBuAla][B5(19)]DYAAF[hSer][PyrS2][3Thi][Bta]Q-NH2 (staple 1-4, 4-11) [I-1783]

NanoBRET Abs IC50 (B-cat-Halo [1]): 34.4 µM
Binder: Ac-[αAllylPro]D[tBuAla][B5(19)]D[Phe(F5)]AAFN[PyrS2][3Thi][Bta]Q-NH2 (staple 1-4, 4-11) [I-1790]

NanoBRET Abs IC50 (B-cat-Halo [1]): > 20 µM
Binder: Ac-[αAllylPro]D[tBuAla][B5(19)]D[Phe(F5)]AAF[hSer][PyrS2][3Thi][Bta]Q-NH2 (staple 1-4, 4-11) [I-1791]

NanoBRET Abs IC50 (B-cat-Halo [1]): > 20 µM
B6: I-1793 (peptide)
peptide: Ac-[αAllylPro]D[tBuAla][B5(19)]DHAAF[hSer][PyrS2][3Thi][Bta]Q-NH2
modifications: staple 1-4, 4-11; not fully specified; printed as Ac-PL3-Asp-Npg-B5-Asp-His-Ala-Ala-Phe-Hse-PyrS2-3Thi-BztA-Gln-NH2

NanoBRET Abs IC50 (B-cat-Halo [1]): > 20 µM
Binder: Ac-[αAllylPro]D[tBuAla][B5(19)]D[hTyr]AAF[hSer][PyrS2][3Thi][Bta]Q-NH2 (staple 1-4, 4-11) [I-1786]

NanoBRET Abs IC50 (B-cat-Halo [1]): > 20 µM
B7: I-1796 (peptide)
peptide: Ac-[αAllylPro]D[tBuAla][B5(3)]DHAAFL[PyrS2″][3Thi][Bta]Q-NH2
modifications: staple 1-4, 4-11; not fully specified; printed as Ac-PL3-Asp-Npg-B5-Asp-His-Ala-Ala-Phe-Leu-PyrS2-3Thi-BztA-Gln-NH2

From patent publication US20240116985A1 (published 2024)
